Three variants from IntAct's records for PubMed 24525235 can be followed below.

The chains are these.
B1: Twist-related protein 1 (Homo sapiens), Q15672 (parent)
chain: MMQDVSSSPVSPADDSLSNSEEEPDRQQPPSGKRGGRKRRSSRRSAGGGAGPGGAAGGGVGGGDEPGSPAQGKRGKKSAGCGGGGGAGGGGGSSSGGGSPQSYEELQTQRVMANVRERQRTQSLNEAFAALRKIIPTLPSDKLSKIQTLKLAARYIDFLYQVLQSDELDSKMASCSYVAHERLSYAFSVWRMEGAWSMSASH

Variants of B1 are the subject of the test. The following applies: with BRD4, O60885-1.
MMQDVSSSPVSPADDSLSNSEEEPDRQQPPSGKRGGRKRRSSRRSAGGGAGPGGAAGGGVGGGDEPGSPAQGRRGKKSAGCGGGGGAGGGGGSSSGGGSPQSYEELQTQRVMANVRERQRTQSLNEAFAALRKIIPTLPSDKLSKIQTLKLAARYIDFLYQVLQSDELDSKMASCSYVAHERLSYAFSVWRMEGAWSMSASH [K73R]: the “effect of a mutation on the interaction” value is listed as “decreasing interaction strength”.

On to MMQDVSSSPVSPADDSLSNSEEEPDRQQPPSGKRGGRKRRSSRRSAGGGAGPGGAAGGGVGGGDEPGSPAQGRRGRKSAGCGGGGGAGGGGGSSSGGGSPQSYEELQTQRVMANVRERQRTQSLNEAFAALRKIIPTLPSDKLSKIQTLKLAARYIDFLYQVLQSDELDSKMASCSYVAHERLSYAFSVWRMEGAWSMSASH [K73R;K76R], for which the “effect of a mutation on the interaction” value is “disrupting interaction strength”.

MMQDVSSSPVSPADDSLSNSEEEPDRQQPPSGKRGGRKRRSSRRSAGGGAGPGGAAGGGVGGGDEPGSPAQGKRGRKSAGCGGGGGAGGGGGSSSGGGSPQSYEELQTQRVMANVRERQRTQSLNEAFAALRKIIPTLPSDKLSKIQTLKLAARYIDFLYQVLQSDELDSKMASCSYVAHERLSYAFSVWRMEGAWSMSASH [K76R]: the “effect of a mutation on the interaction” value is on record as “decreasing interaction strength”.
